From IntAct's records for PubMed 27309818

B1: Izumo sperm-egg fusion protein 1 (Homo sapiens), Q8IYV9-1 (parent)
chain: MGPHFTLLCAALAGCLLPAEGCVICDPSVVLALKSLEKDYLPGHLDAKHHKAMMERVENAVKDFQELSLNEDAYMGVVDEATLQKGSWSLLKDLKRITDSDVKGDLFVKELFWMLHLQKETFATYVARFQKEAYCPNKCGVMLQTLIWCKNCKKEVHACRKSYDCGERNVEVPQMEDMILDCELNWHQASEGLTDYSFYRVWGNNTETLVSKGKEATLTKPMVGPEDAGSYRCELGSVNSSPATIINFHVTVLPKMIKEEKPSPNIVTPGEATTESSISLQPLQPEKMLASRLLGLLICGSLALITGLTFAIFRRRKVIDFIKSSLFGLGSGAAEQTQVPKEKATDSRQQ
B2: Sperm-egg fusion protein Juno (Homo sapiens), A6ND01-1 (parent)
chain: MACWWPLLLELWTVMPTWAGDELLNICMNAKHHKRVPSPEDKLYEECIPWKDNACCTLTTSWEAHLDVSPLYNFSLFHCGLLMPGCRKHFIQAICFYECSPNLGPWIQPVGSLGWEVAPSGQGERVVNVPLCQEDCEEWWEDCRMSYTCKSNWRGGWDWSQGKNRCPKGAQCLPFSHYFPTPADLCEKTWSNSFKASPERRNSGRCLQKWFEPAQGNPNVAVARLFASSAPSWELSYTIMVCSLFLPFLS

Variants of: B1
Settings: with IZUMO1R

Variant	effect of a mutation on the interaction
E71A	decreasing interaction strength
E71K	decreasing interaction strength
W148A	disrupting interaction strength
H157A	decreasing interaction strength
R160A	decreasing interaction strength
R160E	decreasing interaction strength

Variants of: B2
Settings: with IZUMO1, Q8IYV9-1

Variant	effect of a mutation on the interaction
E45A	decreasing interaction strength
E45K	decreasing interaction strength
W62A	decreasing interaction strength
L81A	disrupting interaction strength
K163A	decreasing interaction strength
K163E	decreasing interaction strength
